# According to the nanobody polyreactivity screen of Harvey et al. (2022):
# Experiment: yeast display, Sf9 membrane polyspecificity reagent, FACS + sequencing; frameworks hold sequencing errors
# Method in brief: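 Polyreactivity labels are assigned by the sorting gate from which each nanobody was recovered. The gates were low and high (top ~1%), set on anti-HA fluorescence for expression and streptavidin fluorescence for reagent binding. Before sorting, galactose-induced (36–48 hours) yeast display cells were stained for 1 hour at 4 °C with 10% biotinylated, detergent-solubilized Sf9 membrane reagent.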
row,Sequence,polyreactivity (PSR sort gate)
1,QVQLVESGGGLVQAGASLRLSCAASGSTFYVNAMGWYRQAPGKERELVASISSSSGSTYYADSVKRRFTISRDNAKNTVYFQMNSLKPEDTAVYYCAAEVGIFIWFDYWGQGTQVTVSS,low polyreactivity
2,QVQHVESGGGLVQAGGSLRLSCAASESILNRYVMGWYRQATGKERELVCTYYADSVKVRFTISRDNAKNTVYLQMNSLKPEDTAVYYCAADVYLYYAGSRYYYWGQGTQVTVSS,low polyreactivity
3,QVQLVESGGGLVQAGGSLRLSCAASGRTFYRYAMGWSRQAPGKERELVATISGSGGSTYYADSVKGRFTISRDNAKNTVYLQMNSLKPEDTAVYYCNAVWRFPIGRTAPRYDYWGQGTQVTVSS,high polyreactivity
4,QVQLVESGGGLVQAGGSLRLICAASGFTFYYKAMGWYRPAHGKERELVAAISTGGSTYYADSVKGRFTISRDNAKNTVYLQMNSLKPEDTAVYYCARSLWTGGYGYYYWGQGTQVTVSS,high polyreactivity
5,QVQLVESGGGLVQAGGSLRLSCAASGRTFGVYAMGWYRQAPGKERELVAGIRWRGGSTYYADSVKGRFTISRDNAKNTVYLQMNSLKPEDTAVYYCAAKVYYLYDSIWAWVIIRYDYWGQGTQVTVSS,low polyreactivity
6,QVQLEESGGGLVQAGGSLRISCSASGFNFRYYTMGWYRQAPGKERELVAAITSRGGSTYYADSLKGRFTISRDIAKNTVYLQMNSLKPEDTAVYYCATTSWGYEYWGQGTEVTVSS,high polyreactivity
7,QVQLVESGGGLVQAGGSLRLSSAASGLTFNYYAMGWYRQAPGKERELVAAISKSGGRTYYADSVKGRFTISRDNAKNTVYLQMNSLKPEDTAVYYCNDVVPRSRYFSWTYDYWGQGTQVTVSS,high polyreactivity
8,QVQLVESGGGLVQAGGSLRLSCADSGYTIILYVMGWYRQAPGKERELVAVITLSGGITYYADSVKGRFTISRDNAKNTVYLQMNSLKPEDTAVYYCAVDVYHNRYFTLTSWYHYDSWGQGTQVTVSS,low polyreactivity
9,QVQLVESGGGLVQAGGSLRLSCAAAGSIFYYKTMGWYRQAPGKEREMVAAISWSGGSTSYADSVKGRFTISRDNAKNTVYLQMNSLKPEDTAVYYCNVDYGVHVTARDYWGQGTQVTVSS,low polyreactivity
10,QVQLVESGGGLVQAGGSLRLSCAASGSTFYPYAMGWYRQAPGKERELVASISSRGGTTYYADSVKGRFTISRDNAKNTVYLQMNSLKPEDTAVYYCAARLTYAERKWPTKYYWGQGTQVTVSS,high polyreactivity
11,QVQLVESGGGLVQAGGSLRLSCAASGSIFRVYAMGWYRQAPGKERELVAAISSIVGSTYYADSVKGRFTISRDNAKNTVYLQMNSLKPADTAVYYCNKDGTWPRTGSEYDYWGQGTQVTVSS,low polyreactivity
12,QVQLVESGGGLVQAGGSLPLSCAASGFTFDKYAMGWYRQAPGKERELVAAISNSGGRTYYADSVKGRFTISRDNAKKTVYLQMNSLKPEDTAVYYCAAKFRYQYVRVAREYYYWGQGTQVTVSS,high polyreactivity
13,QVQLVESGGGLVQAGGSLRLSCAASGLIFNYYAMGWYRQAPGKEREFVAAISGRGGNTYYADSVKVRFTISRDNAKTTVYLQINSLKPEDTAVYYCAARRYYSNREYDYWGQGTQVTVSS,high polyreactivity
14,QVQLVESGGGLVQAGGSLRLSCAASGSTYYQYVMGWYRQAPGKEMELVAAISGSGGSTYYADSVKGRFTISRDNAKNTVYLQMNSLKPEDTAVYYCAARLRGRGRPPFGYWGQGTQLTVSS,high polyreactivity
15,QVQLVESGGGLVQAGGSLRLSCAASGSIFGANTMGWYRQAPGKERELVAAISSGGNTYYADSVKGRFTISRDNAKNTVYLQMNSLKPEDTAVYYCNAQTRYRYQYGYLGGTGYNYWGQGTQVTVSS,low polyreactivity
16,QVQLVESGGGLVQAGGSLRLSCAASGSTFDKNDMGWYRQAPGRERELVAAITSSGSSTYYADSVKGRFTISRDNAKNTVYLQMNSLKPADTAVYYCAADKYYYDRLSPSGDYWGQGTQVTVSS,low polyreactivity
17,QVQLVESGGGLVQAGCSLRLSCGASGSIFAYYDMGWYREAPGTEREVVAAITTRDDDTYYADSVKGRFTISRDTAKNPVYLQMNSLKPEDTAVYYCAAAWWDYGNGKYDYWGQGTQVTVSS,low polyreactivity
